# Measurements taken from patent publication US8017735B2, “Anti-IGFR1 antibody therapeutic combinations” (Schering Corporation, priority 2003, dated 2011).
# Where “and” joins values, the source holds several entries; their conditions need not be identical. Equal values may be shown once.
# B1: 19D12/15H12 LCF/HCA: monoclonal, fully-human anti-IGFR1 antibody: mature light chain F (SEQ ID NO: 2) paired with mature heavy chain A (SEQ ID NO: 4) (antibody, listed as Homo sapiens, V domains shown)
# VH: MEFGLSWVFLVAILKGVQCEVQLVQSGGGLVKPGGSLRLSCAASGFTFSSFAMHWVRQAPGKGLEWISVIDTRGATYYADSVKGRFTISRDNAKNSLYLQMNSLRAEDTAVYYCARLGNFYYGMDVWGQGTTVTVSS
# VL: MSPSQLIGFLLLWVPASRGEIVLTQSPGTLSVSPGERATLSCRASQSIGSSLHWYQQKPGQAPRLLIKYASQSLSGIPDRFSGSGSGTDFTLTISRLEPEDFAVYYCHQSSRLPHTFGQGTKVEIKRT
# B2: 19D12/15H12: 19D12/15H12 wild-type anti-IGFR1 antibody (antibody, listed as Homo sapiens, V domains shown)
# VL: MSPSQLIGFLLLWVPASRGEIVLTQSPGTLSVSPGERATLSCRASQSIGSSLHWYQQKPGQAPRLLIKYASQSLSGIPDRFSGSGSGTDFTLTISRLEPEDFAVYYCHQSSRLPHTFGQGTKVEIKRT
# VH: MEFGLSWVFLVAILKGVQCEVQLVQSGGGLVKPGGSLRLSCAASGFTFSSFAMHWVRQAPGKGLEWISVIDTRGATYYADSVKGRFTISRDNAKNSLYLQMNSLRAEDTAVYYCARLGNFYYGMDVWGQGTTVTVSS
# Key:
# MCF7 cells = experiment: Proliferation assay (Cell Titer-Glo) with anti-IGFR1 antibody and a chemotherapeutic agent, MCF7 cells; type: cell-based
# Description: (§1) The ability of cells in culture to proliferate when exposed to varying concentrations of the 19D12/15H12 wild-type or 19D12/15H12 LCF/HCA anti-IGFR1 antibody and either paclitaxel, gefitinib, lonafarnib 4-hydroxy tamoxifen or doxorubicin was evaluated in this example.
# (§2) Cell Preparation. […] The cells were trypsinized, counted and resuspended at a concentration of 25000 cells/ml in 10% HI-FBS (heat-inactivated fetal bovine serum) RPMI medium containing NEAA (non-essential amino acids), L-Glu, MEM Vitamins and PS. 100 ul of cell suspension (2500 cells) was added to each well of a BD Falcon 96 well black, clear bottom TC treated plate. The cells were allowed to attach and spread overnight at 37° C. The 10% RPMI solution was replaced with 100 μl RPMI containing 2% HI-FBS containing NEAA, L-Glu, MEM Vitamins and PS.
# (§3) Solution Preparation. All assay reagents were prepared in RPMI containing 2% HI-FBS at 20× concentration and serial diluted for a total of 10 test concentrations per treatment. Every test point was prepared in triplicate on separate assay plates.
# (§4) Reagent 1 and 19D12/15H12 or 19D12/15H12 LCF/HCA were set up individually as dose responses as well as in combination with each other. Cell proliferation was measured on Day4.
# (§5) Assay. Cell proliferation was measured using the Promega Cell Titer-Glo Luminescent Cell Viability Assay (Promega Corp.; Madison, Wis.). This assay provided a method for determining the number of viable cells in culture based on quantitation of ATP in the culture, which indicates the presence of metabolically active cells.
# (§6) The assay reagents and assay plates were equilibrated to room temperature and prepared immediately before addition to the assay plates. One volume of assay reagent was added to each well of the assay plate and shaken on an orbital platform for at least ten minutes to allow for equilibration of the ATP reaction and to ensure total lysis of all cells in the assay plate. […] Luminescence was detected on Wallac 420 Plate Reader with stacker.
# (§7) The units in the tables (proliferation index) are arbitrary and are proportional to the number of viable cells observed in the culture under each respective condition.
# (§8) In Tables 2-6, “ug” indicates micrograms and “uM” indicates micromolar.
# H322 NSCLC cells = experiment: Proliferation assay (Cell Titer-Glo) with anti-IGFR1 antibody and a chemotherapeutic agent, H322 NSCLC cells; type: cell-based, human; settings: H322, Day4, replicates
# Description: as §1, §2, §3, §4, §5, §6, §7, §8
molecule,measurement,setting,value
"CC/C(=C(\c1ccc(O)cc1)c1ccc(OCCN(C)C)cc1)c1ccccc1 [4-hydroxy tamoxifen, 4-hydroxytamoxifen, reference compound]",proliferation index,MCF7 cells; 4-hydroxy tamoxifen alone 20000 ng/mL,80 and 72 and 87 and 71 and 61 and 67 and 70 and 92
"COc1cc2ncnc(Nc3ccc(F)c(Cl)c3)c2cc1OCCCN1CCOCC1 [Iressa, 4-(3-chloro-4-fluoroanilino)-7-methoxy-6-(3-morpholinopropoxy)quinazoline]",proliferation index,H322 NSCLC cells; Iressa alone 0.0512 nM,59448 and 76032 and 61018 and 59690 and 63252 and 63688 and 60730 and 74464 and 65802
same,proliferation index,H322 NSCLC cells; Iressa alone 0.256 nM,56752 and 73246 and 58760 and 59474 and 57314 and 58384 and 59448 and 66806 and 64854
same,proliferation index,H322 NSCLC cells; Iressa alone 32 nM,45712 and 58272 and 41264 and 40992 and 44162 and 42054 and 43124 and 45062 and 41426
same,proliferation index,H322 NSCLC cells; Iressa alone 160 nM,35044 and 43832 and 32072 and 32728 and 33532 and 35078 and 34864 and 36144 and 34946
same,proliferation index,H322 NSCLC cells; Iressa alone 4000 nM,27738 and 27810 and 24546 and 24376 and 26742 and 28156 and 24528 and 28442 and 27026
same,proliferation index,H322 NSCLC cells; Iressa alone 20000 nM,10818 and 11294 and 10994 and 9734
B1,proliferation index,H322 NSCLC cells; antibody alone 0.000256 nM (Table 2 plates),73420 and 74154 and 83338 and 74108 and 84234 and 83206 and 80894 and 82674 and 71784
same,proliferation index,H322 NSCLC cells; antibody alone 0.0064 nM (Table 2 plates),61654 and 79014 and 72998 and 69060 and 64818 and 74862 and 76374 and 68206 and 70226
same,proliferation index,H322 NSCLC cells; antibody alone 0.8 nM (Table 2 plates),40944 and 47470 and 52010 and 49636 and 55228 and 53706 and 56984 and 49396 and 47080
same,proliferation index,H322 NSCLC cells; antibody alone 0.8 nM (Table 3 plates),49206
same,proliferation index,H322 NSCLC cells; antibody alone 4 nM (Table 2 plates),42312 and 48884 and 49992 and 50508 and 47256 and 56998 and 54966 and 51438 and 44700
same,proliferation index,H322 NSCLC cells; antibody alone 20 nM (Table 2 plates),44120 and 55106 and 50680 and 49038 and 56114 and 52446 and 51826 and 52490 and 48302
same,proliferation index,H322 NSCLC cells; antibody alone 20 nM (Table 3 plates),51960 and 58598 and 48444 and 49156 and 51020 and 48730 and 49684 and 45064 and 52120
same,proliferation index,H322 NSCLC cells; antibody alone 5.12E−05 nM (Table 2 plates),74408 and 87030 and 83636 and 79810 and 79650 and 90294 and 88940 and 86762 and 74996
B2,Proliferation of MCF7 cells,MCF7 cells; 19D12/15H12 0.00001024 nM + doxorubicin 0.00001024 ug/mL,101144
same,Proliferation of MCF7 cells,MCF7 cells; 19D12/15H12 0.00001024 nM + doxorubicin 0.0000512 ug/mL,102670
same,Proliferation of MCF7 cells,MCF7 cells; 19D12/15H12 0.00001024 nM + doxorubicin 0.000256 ug/mL,100293
same,Proliferation of MCF7 cells,MCF7 cells; 19D12/15H12 0.00001024 nM + doxorubicin 0.0064 ug/mL,95276
same,Proliferation of MCF7 cells,MCF7 cells; 19D12/15H12 0.00001024 nM + doxorubicin 0.8 ug/mL,5132
same,Proliferation of MCF7 cells,MCF7 cells; 19D12/15H12 0.00001024 nM + doxorubicin 4 ug/mL,12606
same,Proliferation of MCF7 cells,MCF7 cells; 19D12/15H12 0.00001024 nM + doxorubicin 20 ug/mL,7789
same,Proliferation of MCF7 cells,MCF7 cells; 19D12/15H12 0.0000512 nM + doxorubicin 0.00001024 ug/mL,111388
same,Proliferation of MCF7 cells,MCF7 cells; 19D12/15H12 0.0000512 nM + doxorubicin 0.0000512 ug/mL,106322
same,Proliferation of MCF7 cells,MCF7 cells; 19D12/15H12 0.0000512 nM + doxorubicin 0.000256 ug/mL,107406
same,Proliferation of MCF7 cells,MCF7 cells; 19D12/15H12 0.0000512 nM + doxorubicin 0.0064 ug/mL,93794
same,Proliferation of MCF7 cells,MCF7 cells; 19D12/15H12 0.0000512 nM + doxorubicin 0.8 ug/mL,5649
same,Proliferation of MCF7 cells,MCF7 cells; 19D12/15H12 0.0000512 nM + doxorubicin 4 ug/mL,11124
same,Proliferation of MCF7 cells,MCF7 cells; 19D12/15H12 0.0000512 nM + doxorubicin 20 ug/mL,6793
same,Proliferation of MCF7 cells,MCF7 cells; 19D12/15H12 0.000256 nM + doxorubicin 0.00001024 ug/mL,86861
same,Proliferation of MCF7 cells,MCF7 cells; 19D12/15H12 0.000256 nM + doxorubicin 0.0000512 ug/mL,76193
same,Proliferation of MCF7 cells,MCF7 cells; 19D12/15H12 0.000256 nM + doxorubicin 0.000256 ug/mL,74312
same,Proliferation of MCF7 cells,MCF7 cells; 19D12/15H12 0.000256 nM + doxorubicin 0.0064 ug/mL,70725
same,Proliferation of MCF7 cells,MCF7 cells; 19D12/15H12 0.000256 nM + doxorubicin 0.8 ug/mL,5698
same,Proliferation of MCF7 cells,MCF7 cells; 19D12/15H12 0.000256 nM + doxorubicin 4 ug/mL,13174
same,Proliferation of MCF7 cells,MCF7 cells; 19D12/15H12 0.000256 nM + doxorubicin 20 ug/mL,6667
same,Proliferation of MCF7 cells,MCF7 cells; 19D12/15H12 0.0064 nM + doxorubicin 0.00001024 ug/mL,60936
same,Proliferation of MCF7 cells,MCF7 cells; 19D12/15H12 0.0064 nM + doxorubicin 0.0000512 ug/mL,60524
same,Proliferation of MCF7 cells,MCF7 cells; 19D12/15H12 0.0064 nM + doxorubicin 0.000256 ug/mL,61820
same,Proliferation of MCF7 cells,MCF7 cells; 19D12/15H12 0.0064 nM + doxorubicin 0.0064 ug/mL,53583
same,Proliferation of MCF7 cells,MCF7 cells; 19D12/15H12 0.0064 nM + doxorubicin 0.8 ug/mL,4702
same,Proliferation of MCF7 cells,MCF7 cells; 19D12/15H12 0.0064 nM + doxorubicin 4 ug/mL,10648
same,Proliferation of MCF7 cells,MCF7 cells; 19D12/15H12 0.0064 nM + doxorubicin 20 ug/mL,7057
same,Proliferation of MCF7 cells,MCF7 cells; 19D12/15H12 0.8 nM + doxorubicin 0.00001024 ug/mL,70307
same,Proliferation of MCF7 cells,MCF7 cells; 19D12/15H12 0.8 nM + doxorubicin 0.0000512 ug/mL,64429
same,Proliferation of MCF7 cells,MCF7 cells; 19D12/15H12 0.8 nM + doxorubicin 0.000256 ug/mL,60055
same,Proliferation of MCF7 cells,MCF7 cells; 19D12/15H12 0.8 nM + doxorubicin 0.0064 ug/mL,56538
same,Proliferation of MCF7 cells,MCF7 cells; 19D12/15H12 0.8 nM + doxorubicin 0.8 ug/mL,4916
same,Proliferation of MCF7 cells,MCF7 cells; 19D12/15H12 0.8 nM + doxorubicin 4 ug/mL,11778
same,Proliferation of MCF7 cells,MCF7 cells; 19D12/15H12 0.8 nM + doxorubicin 20 ug/mL,7693
same,Proliferation of MCF7 cells,MCF7 cells; 19D12/15H12 4 nM + doxorubicin 0.00001024 ug/mL,61992
same,Proliferation of MCF7 cells,MCF7 cells; 19D12/15H12 4 nM + doxorubicin 0.0000512 ug/mL,57611
same,Proliferation of MCF7 cells,MCF7 cells; 19D12/15H12 4 nM + doxorubicin 0.000256 ug/mL,58980
same,Proliferation of MCF7 cells,MCF7 cells; 19D12/15H12 4 nM + doxorubicin 0.0064 ug/mL,53567
same,Proliferation of MCF7 cells,MCF7 cells; 19D12/15H12 4 nM + doxorubicin 0.8 ug/mL,4259
same,Proliferation of MCF7 cells,MCF7 cells; 19D12/15H12 4 nM + doxorubicin 4 ug/mL,12760
same,Proliferation of MCF7 cells,MCF7 cells; 19D12/15H12 4 nM + doxorubicin 20 ug/mL,8097
same,Proliferation of MCF7 cells,MCF7 cells; 19D12/15H12 20 nM + doxorubicin 0.00001024 ug/mL,59288
same,Proliferation of MCF7 cells,MCF7 cells; 19D12/15H12 20 nM + doxorubicin 0.0000512 ug/mL,60307
same,Proliferation of MCF7 cells,MCF7 cells; 19D12/15H12 20 nM + doxorubicin 0.000256 ug/mL,62242
same,Proliferation of MCF7 cells,MCF7 cells; 19D12/15H12 20 nM + doxorubicin 0.0064 ug/mL,54983
same,Proliferation of MCF7 cells,MCF7 cells; 19D12/15H12 20 nM + doxorubicin 0.8 ug/mL,5202
same,Proliferation of MCF7 cells,MCF7 cells; 19D12/15H12 20 nM + doxorubicin 4 ug/mL,10465
same,Proliferation of MCF7 cells,MCF7 cells; 19D12/15H12 20 nM + doxorubicin 20 ug/mL,7489
